# Tests used:
# Assay in all cases: native gel or EMSA
# [1] = biological target: AcK-pro-PanD variant with acetyl-lysine at position 9 (S. enterica)
# [2] = biological target: AcK-pro-PanD variant with acetyl-lysine at position 14 (S. enterica)
# [3] = biological target: AcK-pro-PanD variant with acetyl-lysine at position 53 (S. enterica)
# [4] = biological target: AcK-pro-PanD variant with acetyl-lysine at position 104 (S. enterica)
# [5] = biological target: AcK-pro-PanD variant with acetyl-lysine at position 115 (S. enterica)
# [6] = biological target: AcK-pro-PanD variant with acetyl-lysine at position 119 (S. enterica)
# [7] = biological target: pro-PanD (wild type), made from a plasmid in S. enterica ΔpanM (S. enterica)
substance,measurement,setting,value
AcK-pro-PanD variant with acetyl-lysine at position 9 (natural protein),stoichiometry N,[1],4
AcK-pro-PanD variant with acetyl-lysine at position 14 (natural protein),stoichiometry N,[2],4
AcK-pro-PanD variant with acetyl-lysine at position 53 (natural protein),stoichiometry N,[3],4
AcK-pro-PanD variant with acetyl-lysine at position 104 (natural protein),stoichiometry N,[4],4
AcK-pro-PanD variant with acetyl-lysine at position 115 (natural protein),stoichiometry N,[5],4
AcK-pro-PanD variant with acetyl-lysine at position 119 (natural protein),stoichiometry N,[6],4
"pro-PanD (wild type), made from a plasmid in S. enterica ΔpanM (natural protein)",stoichiometry N,[7],4

# — publication PMC3398536
